Source: the RNAGym collection of RNA variant scans (doi:10.7554/elife.90254)

B1: OR4K15 (parent)
chain: GUUAACGGUCAUAGGCCAUGGAAACUAGGAGCACCAUUUCGCUGCCAGUGAAGAAAUGAACAAAGAAAAUCUGGGCCAGGCAGGCAUCAAAAGAAAUAGUCUUGCGCUCAACCAGAAAGUCUGUAAUCAUUUUAAGGGUA

Variants of: B1
Test: self-cleavage, relative activity (ratio to wild type); higher = more cleavage; in vitro, sequencing; the parent is a self-cleaving ribozyme

| Variant | self-cleavage |
| --- | --- |
| U70A A78U | 0.43 |
| U70G A95G | 1.21 |
| A69G U139A | 1.69 |
| A69U U87G | 0.74 |
| U70C A129U | 0.41 |
| A67U A117G | 2.28 |
| U72A A117G | 0.16 |
| A69G A135G | 0.07 |
| A69G A135U | 1.45 |
| A69U A117G | 1.48 |
| A69U A111G | 0.04 |
| A69G A90G | 1.43 |
| A69U U103C | 0.51 |
| U70C U124A | 0.17 |
| U70C U124C | 0.27 |
| U70C U130A | 0.19 |
| A68G U124A | 0.95 |
| A67U U130C | 1.04 |
| A69G U132A | 0.69 |
| U70C A118G | 0.35 |
| A69G U87A | 1.29 |
| A69G U87C | 1.66 |
| A69C A96U | 0.68 |
| A69G A95U | 1.56 |

| Variant | self-cleavage |
| --- | --- |
| U72A A78U | 0.15 |
| A68G A82C | 0.2 |
| A68G A82G | 0.62 |
| A68G A82U | 0.22 |
| U72A A110C | 0.06 |
| A68C U131C | 0.94 |
| A69G U108C | 0.02 |
| A67G U127C | 1.16 |
| A69G U72G | 0.38 |
| C71A U124C | 0.22 |
| U70C U131C | 0.65 |
| U70C A78U | 0.52 |
| U70C U133C | 0.98 |
| A68U U132C | 1.76 |
| A67G C88A | 1.16 |
| U70A U127C | 0.34 |
| A69G C107U | 0.03 |
| A67G G84U | 0.35 |
| A67G U132A | 1.42 |
| A69G A96G | 1.52 |
| A69G A96C | 1.58 |
| U70C | 0.47 |
| U70A | 0.83 |
| U70G | 0.88 |

| Variant | self-cleavage |
| --- | --- |
| U72A | 0.18 |
| A67U A134G | 1.09 |
| U72A A95G | 0.36 |
| U70C G104A | 0.03 |
| U70C U87G | 0.04 |
| A67G U124C | 0.87 |
| U72A A135U | 0.14 |
| U72A A135G | 0.21 |
| A68G U100A | 0.24 |
| A68G U100C | 1.42 |
| A69U A134G | 1.82 |
| U70C A98U | 0.72 |
| U70A A110U | 0.18 |
| U70A A110G | 0.1 |
| U70C U102A | 0.33 |
| C71U U132C | 0.25 |
| U70A A95G | 1.98 |
| A68G G106A | 0.02 |
| A69G U122G | 1.83 |
| A67U A92G | 2.2 |
| A68U C113A | 0.01 |
| A68G U103G | 0.04 |
| A67U C113U | 0.42 |
| A69G A89G | 0.86 |

| Variant | self-cleavage |
| --- | --- |
| A69G A89C | 1.65 |
| A67G G136A | 1.63 |
| U72A A98U | 0.33 |
| A67U A125G | 1.2 |
| A69U U102C | 2.2 |
| C71A A98G | 0.14 |
| A68G G73U | 0.07 |
| A68C | 1.73 |
| A68U | 1.83 |
| A68G | 0.98 |
| A67U U131C | 2.18 |
| A67U U131G | 1.68 |
| A68G G104A | 0.04 |
| A67G U133C | 1.12 |
| A69G G83A | 2.11 |
| A69U A129U | 1.23 |
| A67U C85U | 1.15 |
| A69U A95G | 2.37 |
| A67G U87C | 1.19 |
| U70C A91U | 1.07 |
| U70A U122C | 1.14 |
| A68G C101G | 0.08 |
| A68G C101A | 0.19 |
| U70C U97C | 0.68 |

| Variant | self-cleavage |
| --- | --- |
| A68U A90G | 1.18 |
| A68G U108C | 0.01 |
| A68G U108A | 0.04 |
| A68G A134U | 1.49 |
| A67U U127C | 1.01 |
| A68C U124C | 1.22 |
| A68G U122A | 0.93 |
| A68G A111G | 0.01 |
| U70C U72C | 0.31 |
| U70C U72A | 0.21 |
| A68G A92U | 1.87 |
| U70C G75A | 0.21 |
| U72A C85U | 0.36 |
| U70A A117G | 0.03 |
| A67G A134G | 1.7 |
| C71U U72A | 0.19 |
| A67U A118U | 0.53 |
| A69C A114G | 0.21 |
| A68G U87C | 1.12 |
| A67G A111U | 0.12 |
| A69U A96G | 2.35 |
| A69G A134G | 1.17 |
| A69G U127A | 1.8 |
| C71U A126G | 0.32 |

| Variant | self-cleavage |
| --- | --- |
| A67G U103C | 1.36 |
| A68G A126G | 0.6 |
| A68G A126U | 0.66 |
| A68G A89C | 1.1 |
| A68G A89U | 2.23 |
| A68G C85U | 1.49 |
| U70C U127C | 0.35 |
| U70C A94U | 0.2 |
| A67U A69G | 1.13 |
| A68G C71A | 0.6 |
| A69U U72C | 0.36 |
| U70A C77U | 2.04 |
| C71G U87A | 0.21 |
| A67G U139C | 1.64 |
| A67G U139A | 1.87 |
| U70A A118G | 0.37 |
| U70A U139A | 0.23 |
| A68G U102A | 0.85 |
| U70A U132C | 0.6 |
| A68U C88U | 2.47 |
| A69G A126G | 0.55 |
| A69G A126U | 1.33 |
| A69C A117U | 0.21 |
| U72A C101A | 0.04 |

| Variant | self-cleavage |
| --- | --- |
| A67G A114G | 0.49 |
| A67G A114U | 0.03 |
| U70C A111G | 0.02 |
| U70C G83A | 1.57 |
| U70A U131C | 0.7 |
| A67G U72A | 0.26 |
| A67G U72C | 0.32 |
| A67G A98U | 1.26 |
| U70C C128U | 0.31 |
| A68G G99A | 0.57 |
| A69G U100C | 2.43 |
| A69U A92G | 2.17 |
| A69G G75C | 0.16 |
| U70C U100C | 2 |
| U70C U100A | 0.18 |
| A69G G123A | 1.43 |
| A67G A96G | 1.53 |
| A67G A96U | 1.03 |
| A67G A140C | 1.47 |
| A69G G106A | 0.02 |
| A68U U70C | 0.43 |
| A68G U131C | 0.99 |
| C71A U132C | 0.58 |
